Results published in the supplement of paper PMC12042874.
± gives the uncertainty stated by the source.

Experiment: amyloid nucleation score (Sup35N fusion, yeast selection) (log enrichment); library NNK2; higher = more nucleation; inactive = no reads after selection
Summary of the method: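 Using DiMSum, nucleation scores were taken as the log enrichment of output over input reads, centred on the mode score of non-aggregating sequences. The input and output reads came from Illumina sequencing of plasmid inserts, with sequences under 100 input reads excluded. The yeast were psi-negative, expressed Sup35N fused to peptides of 20 random codons, were induced with 100 μM copper sulfate for 24 hours, and were grown 7 days at 30°C on medium lacking adenine and uracil.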

Substance	amyloid nucleation score
RAIDRRKVFARYVFWSFSWT	-0.141 ± 0.33
VQMGRPWTGALMVSYMIVNH	6.18 ± 0.063
MFVQCICRGIHIIVPGSVRS	3.88 ± 0.13
TVSLTWEKYNEQIHA	0.399 ± 0.74
NVRSWYLDNLFLTFAVA	0.164 ± 0.63
IDLFVCAESMDRRGVTIPRS	0.041 ± 0.35
ICIVGRWYRASVFRVLEDYR	inactive
GVRKFLHPTTGPYMYTRCWA	0.44 ± 0.45
FIPYKYAVHSS	0.166 ± 0.62
YMCRVYMSNSINDFDLPHLL	2.06 ± 0.29
KAYLH	-0.427 ± 0.78
GCTCYWFS	1.63 ± 0.15
LNKMECPCLFCVCVAFVIEW	5.38 ± 0.067
FGAFVYWVFSIAYTLSRGSR	-1.03 ± 0.6
HNYAVS	-0.711 ± 0.54
RFWIEVEVYDVISFVYLERW	0.428 ± 0.34
KSVGVQALMLAKGIYFSING	1.53 ± 0.28
TYHYLMYLLVRRNMGDVNGA	3.49 ± 0.097
LISEVALGFAPMKIVRGFLD	-0.284 ± 0.56
VKNFYNSSINGLGLYMNMRF	2.43 ± 0.068
SDSTSVLPGRTYWVHFSAQG	0.086 ± 0.61
NSIGPTPGGN	0.123 ± 1
VLPYSRVSTS	0.007 ± 0.28
TQDDAHQVRGQCVPSENIGP	1.96 ± 0.21
ACLFWIYARRHRLAWFVFIW	-0.37 ± 0.76

Substance	amyloid nucleation score
VYGCGSCLNCVVCMERCG	9.094 ± 0.048
CFNVV	0.43 ± 0.49
MYFNSRSNYEYAYCWLFIVF	0.492 ± 0.44
DQDSNSFAQSVVSHNVLVNI	inactive
KRYLWTGN	-0.534 ± 0.35
NYSNFTIKYLNLKRTLLDL	-1.74 ± 0.64
RMRQASEAKSLGGPIGRQGL	1.2 ± 0.15
TRYSILVDRRNRIFVVADPD	0.615 ± 0.32
DRTGGPIWVVGYPARGRAAL	0.99 ± 0.29
TPMFHILLYFLNWCYCILVA	0.165 ± 1
YGDYMFHPETAVSL	4.49 ± 0.064
IIGAWKM	0.992 ± 0.33
ESYCAC	1.55 ± 0.28
NAYVEIIIWASRDFMYCRHM	-0.262 ± 0.79
TATGTIECMVYPLTFSSLSP	-0.1 ± 1
ICAGISKKSGGTWSRARVCS	inactive
HSRKFADVKSWLTTDKKRIR	0.37 ± 0.48
GGWYDPGCSGGDIITDEVDW	-0.159 ± 0.55
NNNGV	1.45 ± 0.13
YSGKCMEDVRGQMVGGLELV	0.405 ± 0.22
YGSFIWWLPCNGMGLKCSRS	1.67 ± 0.12
FRSHCWL	0.285 ± 0.41
SIWINFLNLWYQCFISSILG	inactive
SSASLGVAV	-0.517 ± 0.76
FGNVMMTDAV	-0.631 ± 0.46

Substance	amyloid nucleation score
SFDIPT	-0.444 ± 0.63
ECGPWKFDRIERDMNAVVER	2.46 ± 0.17
FWFKV	0.335 ± 0.42
SPHDVGNSIVIMGFRMWLN	0.082 ± 0.44
GVRHGHTRSVGYFSVSYTSL	-1.05 ± 0.54
CVSSRDRG	0.439 ± 0.27
INDSEVMRICLPVGFGHLEG	2.45 ± 0.077
VNWFRLWRTSQLLGRMMLCL	0.427 ± 0.56
ATMEGSAECVFTRDIKIFRH	inactive
GSLKCDAHLG	0.339 ± 0.18
GSFSGKYPRHR	-0.266 ± 1
SDPSNLSMMCTQQRLAGSD	-0.189 ± 0.49
AYYSVSC	3 ± 0.11
EFMLSVRKVVPRIYGNNPRV	2.78 ± 0.084
KSCDIL	-0.335 ± 0.79
QKNTSQCFVLSW	0.129 ± 0.49
GKESTTKH	-0.494 ± 0.56
KASHSVTRSLSVAYI	-0.714 ± 0.38
TGFGTSMFSKLYVNVNYL	5.37 ± 0.072
FTCITIGVFELAQACPIYGG	6.15 ± 0.071
DSLTCCIS	3.37 ± 0.093
TGCRVGHCIYVYVSEVSSNP	0.903 ± 0.34
SIRSFSFISESNQLLEHVRK	0.119 ± 0.54
LVMTHAMFVSLWCGRTVFLL	0.014 ± 0.49
DFYMYSVVDLS	-0.767 ± 0.31

Substance	amyloid nucleation score
IWGGKDLFGGQDWNTLSYLP	-0.283 ± 0.6
FNGLVVFSEHMIRITACDEG	-0.479 ± 1
TLAWRSGTRRELKEECNGGW	1.19 ± 0.59
LVITTMDDLKCDRAVVGPMW	-0.174 ± 0.76
DWQYRLKSVLVFRWQ	3.5 ± 0.15
YCPPFLHNTWAYAKRTGRGS	-0.137 ± 0.61
NTMELLFIGVWIAFWLN	inactive
WYKRVVFPMP	-0.442 ± 1
YGYCIISHTLNLLLGQYLCY	4.99 ± 0.068
LFSALFGRW	4.26 ± 0.05
GGWLAWVRKSYVIVFVWGGG	0.257 ± 0.46
CVKRRWPEVIRVHVGGYSFN	0.455 ± 0.5
FSPVSPSSGKAHGIGLVLLV	0.083 ± 0.41
FSCFIIYVGQKTACNSNTAL	4.57 ± 0.08
HGGQEAVHLRRCGGYDMSKA	0.451 ± 0.42
VVWVSITKWATRAVISHGDT	0.617 ± 0.32
GNSLNSYLSE	-0.346 ± 0.42
GYSYTLRDRCESRLTLRSDV	0.382 ± 0.37
FWFIRTRAGDWCPSSSPRMF	0.149 ± 0.23
MYYYSSCKNVQKSHPSSRMQ	inactive
SRRVLYMVVPPLVF	-1.36 ± 0.54
RLFTWIFPTGNTGF	8.831 ± 0.074
PIKCDRSFWRR	1.49 ± 0.22
RSAYNY	-0.844 ± 0.4
IICMEVIFSLANCADWRTAV	3.53 ± 0.12

Substance	amyloid nucleation score
VGFRRVTNMDRCSFSLCCCW	4.56 ± 0.064
FFTLVVTVLPRRFYRFNYR	0.043 ± 1
IMWYFIINWHP	4.79 ± 0.074
ALWTSC	2.35 ± 0.078
MVFKRPHVWFDTTTFEFGMV	0.732 ± 0.43
DGTGYGTSKLTWWRDFLKRC	-0.192 ± 0.63
YIYLNEKFCITYMRESWNCC	0.651 ± 0.39
RRAVLVSPGVVNQGISKHQG	0.632 ± 0.25
EALMSSTIYYVPCSRHLIMF	-0.576 ± 0.63
RNTYRRGGLPFVAYNRTSVG	0.125 ± 0.28
YNKWLMASLPRIVGT	-0.47 ± 1.1
HDMEYKVMDRIARM	-0.501 ± 1.1
ISCCDRGCDAYLEVWPKLNK	-0.523 ± 1
LSCCSLIPTHPRPRDNVNEC	0.717 ± 0.23
NYIESFMHSQGCNPFQDSFM	3 ± 0.12
LGSRGSRSIAESFAGKIRI	-0.226 ± 1.1
SHEFSRMLEEFWDHNNVRSH	-1.1 ± 0.48
MLTFF	-0.409 ± 0.76
ESILKHSMPSYGFFLF	inactive
VSTSYVTTIVF	-0.237 ± 0.41
YLSGYRLRTVVAVDTGMWYV	2.65 ± 0.13
LNHCG	0.738 ± 0.55
GLPVCYNRVT	-1.22 ± 1
FGVRDDILDSWCCTVCFSGK	0.369 ± 0.65
MCGKRGLRGWLKSDDVIIWV	5.19 ± 0.074

Substance	amyloid nucleation score
RLKYHWGGFEA	0.767 ± 0.4
LNWTTGFSDSAPVICPDTMH	-1.56 ± 1.1
ICYKVLAMDLMLCMSGGVLV	2.1 ± 0.092
CLYPLSVDVVSFHYCTTCCE	0.141 ± 0.33
FVSLTLCCYGEGDVPLREVQ	1.9 ± 0.14
KYVIR	-0.606 ± 1.1
NFGGIKKLYNTMRSYWLGTR	-1.22 ± 0.45
VALVSGVNNTKDMSRAPNRV	-0.19 ± 0.36
IRYDLQQGQFPPTRMECLVL	0.437 ± 0.27
YNQTVCDFLGKRLWGDVWRS	0.26 ± 0.36
YDLCGTALTVLGTVIY	1.15 ± 0.27
STNRWQHIL	-0.382 ± 0.48
FGMFM	-0.228 ± 0.32
GWVMVVPFPCMIVVVSAVGS	-0.152 ± 0.4
GTTWRRINECCSRANKMAPV	0.029 ± 0.35
RSRSYHADWACTVVCLCYS	4.24 ± 0.066
SRSILLKAGWI	inactive
HSKGHILLTSNSNVFRLGRS	0.166 ± 0.62
KWFNVCIWKCAWLYIDGVGC	3.95 ± 0.066
NHGWLYGWVVVNYTFTTGVM	-1.63 ± 0.39
TASHTWSVVCFTWYRCLVND	4.98 ± 0.051
PRLCDECPSCVDLSGVWNPY	inactive
VISHRKPFE	-0.283 ± 1
LNYLCVHTLIACVSWVPVSA	2.36 ± 0.23
LVAFLGQIEPSRTQRTLGSG	0.001 ± 0.39

Substance	amyloid nucleation score
ANKTVFVLEMVGVRGFYLMP	2.66 ± 0.098
DQKAIVMVRNLDAWVGCAHY	0.266 ± 0.46
LGVNYAMNVTSGSQTFMRDG	-0.243 ± 1
GFVQDAEYRISRSCLRCILM	4.03 ± 0.089
KYYRQSCQDRPILFDVALYY	inactive
RPNDMHTT	-0.064 ± 0.26
RIATLSFDSAIIQVYLRGSG	7.028 ± 0.033
GKCWRVRASIFVGILFKIAG	0.486 ± 0.8
SFSCNNSLDYKGNFS	1.48 ± 0.18
YNLFYELNLVLIP	6.137 ± 0.05
QIFSECRTYDFVLPGYMGYY	inactive
SPNRQLVKFYFQTTYMVSRL	3.52 ± 0.071
CKSQLHLRVRTRKNVCVVIS	0.13 ± 0.62
KMLSWP	-0.412 ± 1.1
WSRMLFGECRSGKLRLPMPR	3.73 ± 0.099
TYMSYFSSTWKILVGAHWRR	1.85 ± 0.18
SDDFTYSIYFMSWFFYGSYN	inactive
FMRMGTFYSDAVCMLYVSKR	1.28 ± 0.23
VGVVGYVETSLLGLRRCG	-0.976 ± 0.54
YIVPSKRIWFFGLSSNGDST	0.102 ± 0.41
ALEVLTTLRISLPSHKGSSF	5.533 ± 0.051
KKEVHLSRVYITETYVVGEG	-0.052 ± 0.63
